The text below walks through data of US20220226382A1, “Nutritional Composition” (MORINAGA MILK INDUSTRY CO., LTD., priority 2019, published 2022).

For the assay, the system named is simian rotavirus SA11 strain. Put plainly: Plaque assay: antiviral action against simian rotavirus in MA104 cells (infection-suppressing ratio). In kind it is cell-based. To be noted: LF alone, n=3. The method, then: The simian rotavirus SA11 strain (Nihon Bioresearch Inc.) was inoculated to the MA104 cells (Sigma-Aldrich) of African green monkey kidney maintained in a minimum essential medium (Sigma-Aldrich, henceforth referred to simply as “medium”). The simian rotavirus SA11 strain, for example, can be obtained from American Type Culture Collection (ATCC) as ATCC VR-1565. To the medium, lactoferrin (LF) and/or the human milk oligosaccharide(s) shown below were added beforehand alone or in combination at the following concentrations, respectively (n=3).
LF (produced by Morinaga Milk Industry Co., Ltd.): 0, 0.1 or 1.0 mg/mL
2′-Fucosyllactose (2′-FL, Funakoshi Co., Ltd.): 0, 0.1, 0.5, or 2.5 mg/mL
3-Fucosyllactose (3-FL, Funakoshi Co., Ltd.): 0, 0.1, or 0.5 mg/mL
3′-Sialyllactose (3′-SL, Funakoshi Co., Ltd.): 0, 0.1, or 0.5 mg/mL
6′-Sialyllactose (6′-SL, Funakoshi Co., Ltd.): 0, 0.1, or 0.5 mg/mL […]
Degree of infection was evaluated based on the number of “plaques” formed when the cells were infected with the virus. Specifically, the antiviral effects of lactoferrin and human milk oligosaccharides were evaluated based on “plaque-suppressing ratio (%)”, i.e., the ratio of “plaque counts observed with lactoferrin and/or human milk oligosaccharide(s) supplementation” to “plaque counts observed without these supplementation”. […]

B1: lactoferrin (protein, UniProt P24627 20-708, looked up)
Lactotransferrin: APRKNVRWCTISQPEWFKCRRWQWRMKKLGAPSITCVRRAFALECIRAIAEKKADAVTLDGGMVFEAGRDPYKLRPVAAEIYGTKESPQTHYYAVAVVKKGSNFQLDQLQGRKSCHTGLGRSAGWIIPMGILRPYLSWTESLEPLQGAVAKFFSASCVPCIDRQAYPNLCQLCKGEGENQCACSSREPYFGYSGAFKCLQDGAGDVAFVKETTVFENLPEKADRDQYELLCLNNSRAPVDAFKECHLAQVPSHAVVARSVDGKEDLIWKLLSKAQEKFGKNKSRSFQLFGSPPGQRDLLFKDSALGFLRIPSKVDSALYLGSRYLTTLKNLRETAEEVKARYTRVVWCAVGPEEQKKCQQWSQQSGQNVTCATASTTDDCIVLVLKGEADALNLDGGYIYTAGKCGLVPVLAENRKSSKHSSLDCVLRPTEGYLAVAVVKKANEGLTWNSLKDKKSCHTAVDRTAGWNIPMGLIVNQTGSCAFDEFFSQSCAPGADPKSRLCALCAGDDQGLDKCVPNSKEKYYGYTGAFRCLAEDVGDVAFVKNDTVWENTNGESTADWAKNLNREDFRLLCLDGTRKPVTEAQSCHLAVAPNHAVVSRSDRAAHVKQVLLHQQALFGKNGKNCPDKFCLFKSETKNLLFNDNTECLAKLGGRPTYEEYLGTEYVTAIANLKKCSTSPLLEACAFLTR
notes: produced by Morinaga Milk Industry Co., Ltd
Regarding B1, the infection-suppressing ratio by setting is: (0.1 mg/mL) 8.7%; (1.0 mg/mL) 39%.
